Test results published in US11191841B2, “Supramolecular modification of proteins” (Massachusetts Institute of Technology, priority 2015, dated 2021).
Values belong to the substance of their own block, whether it stands above or below them.

Key:
[1] = Insulin aggregation assay (transmittance at 540 nm); type: physicochemical; settings: insulin 1 mg/mL, pH 7.4, 37° C., continuous agitation
Method: Insulin is well known to form fibrillar aggregates in physiologic conditions. To determine whether PEG-T-CB[7] can stabilize insulin and prevent its aggregation, assays were performed in physiologic salt concentrations at pH 7.4 and 37° C. with continuous agitation to determine the kinetics of insulin aggregation in a solution of 1 mg/mL protein (FIG. 3A). Specifically, transmittance was measured at 540 nm, a wavelength where both insulin and the PEG-T-CB[7] have negligible absorbance in order to detect the formation of aggregates, which scatter light, in solution over time. […] After the initial 100 h study, data were collected once daily to determine the duration of stability for each PEG-T-CB[7]/insulin formulation (FIG. 3B).
Recombinant human insulin was dissolved at 4 mg/ml in 2 mM HCl with 150 mM NaCl. […] The plate was immediately placed into an Infinite® M1000 plate reader (Tecan Group, Ltd.) and shaken continuously at 37° C. Absorbance readings at 540 nm were collected every 6 minutes for 100 hours, and absorbance values were subsequently converted to transmittance. […] Following the 100-hour kinetic study, the plate was maintained under continuous agitation at 37° C. and absorbance at 540 nm was monitored daily to approximate tA for the PEG-T-CB[7] conjugates.

[2] = system: STZ-induced diabetic mice; assay: In vivo blood glucose in STZ diabetic mice; design: species or system mouse; settings: insulin 1 IU/kg s.c., alone or with 5 molar equivalents host; normoglycemia <200 mg/dL; 6-hour study
Method: A mouse model of insulin-deficient diabetes, prepared using streptozotocin to induce pancreatic ß-cell death, was used to evaluate the function of PEG-T-CB[7] conjugates in vivo (FIG. 4A). Following the onset of diabetes, mice were fasted overnight to ensure an average starting blood glucose level of approximately 450 mg/dL. See, e.g., Like et al. Science 1976, 193(4251): 415-417. Insulin was then administered subcutaneously at a dose of 1 IU/kg in a saline vehicle. Alternatively, an identical dose of insulin was administered along with CB [7], PEG5k-T-CB[7], PEG10k-T-CB [7], or PEG30k-T-CB [7]. All insulin formulations reduced average blood glucose to a normoglycemic level (<200 mg/dL for a mouse) following a single subcutaneous administration. Animals that received either native insulin or insulin formulated with unmodified CB[7] became hyperglycemic again approximately 2 hours following administration. […]
Male C57BL/6J, age 8 weeks, were purchased the Jackson Laboratory. […] Mice were allowed to eat ad libitum and glucose levels were monitored by peripheral tail vein bleeds using a portable glucose meter (Accu-Chek Aviva, Roche) daily until unfasted glucose levels >400 mg/dL. […] Blood glucose readings were collected every 30 minutes using a handheld glucose meter for 6 hours following insulin injection.

[3] = Glucagon stability assessment (solubility, circular dichroism); type: physicochemical
Method: Human recombinant glucagon (Sigma) was dissolved at 4 mg/ml in PBS containing 1 mM HCl. This was mixed 1:1 with 1 equivalent of CB[7]-PEG10k in PBS, or in PBS alone, for a final glucagon concentration of 2 mg/ml. Vials were left to age at room temperature for various times. Circular dichroism was performed on samples without dilution, as well as on freshly dissolved glucagon, by utilizing a […] cuvette.

[4] = general statement, glucagon alone; cited from earlier work
native insulin = native insulin (Homo sapiens, UniProt P01308); assay: Acridine orange competitive binding assay; settings: AO 8 μM, CB[7] or PEG-T-CB[7] 6 μM, insulin 0-15 μM, in water; one-site competitive binding model; read-out: KD (binding constant toward insulin)
Method: To confirm binding of PEG-T-CB[7] to native insulin, a competitive binding assay was performed using acridine orange (AO) (FIG. 2D). In this assay, the fluorescent emission spectrum of AO is collected. The fluorescence intensity of AO increases when in complex with CB[7] relative to its emission when free in solution. As insulin is added, the CB[7]*AO complex dissociates as a result of stronger binding affinity of the B1 Phenylalanine residue to the CB[7], resulting in a reduction to the measured fluorescence intensity of AO.
Binding of PEG-T-CB[7] conjugates to insulin was assessed using the acridine orange dye displacement assay, in accordance with a previously described protocol. See, e.g., Chinai et al. Journal of the American Chemical Society 2011, 133(23): 8810-8813 Briefly, 6 μM of either unmodified CB[7] or the PEG-T-CB[7] conjugates and 8 μM acridine orange were combined with recombinant insulin (0, 1, 2, 4, 6, 8, 10, 12.5, 15 μM) in H2O. Samples were incubated overnight in light-free conditions and fluorescent spectra were collected on an Infinite® M1000 plate reader (Tecan Group, Ltd.), exciting at 485 nm and collecting the resulting fluorescent spectra from 495-650 nm. […]

[5] = reported previously (Shaikh et al. 2008); used for fitting; cited from earlier work

Substance: native insulin: Recombinant human insulin, unmodified; aged or fresh as stated
- aggregation time (tA), time after which a 10% reduction in transmittance is observed ([1]; alone or with 1 equivalent host, physiologic salt): 13.6 ± 0.2 h
- insulin aggregation in 100 hours of kinetic study ([1]; 100 h): Rapid aggregation
- duration of normoglycemia following administration (time until hyperglycemic again) [2]: approximately 2 hours

Substance: Glucagon: Human recombinant glucagon (Sigma)
- glucagon conformation by circular dichroism after aging ([3]; aged for 24 hours at room temperature, 2 mg/ml): no appreciable glucagon in solution
- glucagon solubility when dissolved alone ([3]; glucagon 2 mg/ml in PBS alone): readily precipitates from solution
- typical duration of aqueous solubility of glucagon [4]: less than one hour

- Kd (native insulin): 2.3 ± 0.2 µM
Substance: cucurbit[7]uril [CB[7]]
- CB[7]•AO equilibrium constant Keq [5]: 200000 M⁻¹
